# According to patent publication US7727960B2, “C5a receptor antagonists” (Jerini AG, priority 2003, dated 2010):
# Target: T1, human C5aR (CD88) (human, UniProt P21730 1-350)
# T1 sequence (looked up): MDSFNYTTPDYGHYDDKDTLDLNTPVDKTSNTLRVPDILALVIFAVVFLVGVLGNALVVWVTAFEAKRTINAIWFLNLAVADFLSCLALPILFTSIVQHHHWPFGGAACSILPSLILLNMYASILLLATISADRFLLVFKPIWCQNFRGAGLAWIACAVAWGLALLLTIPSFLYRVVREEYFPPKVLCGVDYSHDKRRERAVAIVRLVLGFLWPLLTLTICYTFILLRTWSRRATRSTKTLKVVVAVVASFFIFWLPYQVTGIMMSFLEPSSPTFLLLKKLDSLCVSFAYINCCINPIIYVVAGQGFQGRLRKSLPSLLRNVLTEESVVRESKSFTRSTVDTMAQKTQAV
# Test: cell-based or functional assay
"IC50 activity group, enzyme release assay [nM]","EC50, agonistic activity, enzyme release assay [nM]",Substance
< 2000,–,Ac-Phe-Paf-Pro-cha-Bta-Phe-NH2 (peptide)
< 200,–,Ac-Guf-Phe-Orn-Aze-cha-Bta-Phe-NH2 (peptide)
< 50,–,Ac-Phe-Orn-Aze-hle-Bta-Phe-NH2 (peptide)
< 20,–,Ac-Phe-Ffa-Pro-hle-Bta-Phe-NH2 (peptide)
< 200,–,Ac-Mmy-Orn-Pro-hle-Pff-Phe-NH2 (peptide)
< 200,–,Ac-Phe-Orn-Pro-hle-Pff-Cha-NH2 (peptide)
< 200,–,H-Phe-[Orn-Hyp-hle-Pff-Chg] (peptide)
< 200,–,(-CO-CH2-NH-CO-)-Phe-Orn-Pro-cha-Bta-Phe-NH2 (peptide)
< 200,–,Ac-Mff-Orn-Pro-hle-Mcf-Mff-NH2 (peptide)
< 200,–,Ac-NMF-Orn-Pro-cha-Bta-Phe-NH2 (peptide)
< 200,–,H-Phe-[Orn-NMS-cha-Trp-Nle] (peptide)
< 200,–,3PP-Orn-Aze-cha-Bta-Phe-NH2 (peptide)
< 2000,–,Ac-Phe-Orn-Hyp-cha-Trp-Phe-NH2 (peptide)
< 200,–,Ac-Gly-Phe-Orn-Aze-chg-Bta-Phe-NH2 (peptide)
< 50,–,H-Phe-[Orn-Hyp-hle-Trp-Phe] (peptide)
< 200,–,Ac-Phe-Orn-Pro-hle-Mcf-Pff-NH2 (peptide)
< 20,–,Ac-Phe-Orn-Pro-cha-Bta-Thi-NH2 (peptide)
< 200,–,Ac-Phe-Orn-NMS-cha-Bta-Phe-NH2 (peptide)
< 200,–,Ac-Phe-[Orn-Ser-cha-Trp-Nle] (peptide)
< 50,–,H-Phe-[Orn-Pro-hle-Mcf-Phe] (peptide)

"IC50 activity group, enzyme release assay [nM]","EC50, agonistic activity, enzyme release assay [nM]",Substance
< 200,–,Ac-Phe-Orn-Pro-hle-Bta-phe-OH (peptide)
< 50,–,Ac-Phe-Dab-Aze-hle-Bta-Phe-NH2 (peptide)
< 200,–,Ac-Phe-[Orn-Aze-cha-Trp-Nle] (peptide)
< 200,–,Ac-Phe-Orn-Pro-ctb-Mcf-Phe-NH2 (peptide)
< 200,–,Ac-Phe-Orn-Pro-hle-Egy-Phe-NH2 (peptide)
< 200,–,Ac-Dab-Phe-Orn-Aze-cha-Bta-Phe-NH2 (peptide)
< 200,–,Ac-Phe-[Orn-Tic-cha-Trp-Nle] (peptide)
< 200,–,Ac-Phe-Orn-Chy-cha-Bta-Phe-NH2 (peptide)
< 50,–,H-Phe-[Orn-Hyp-hle-Trp-Leu] (peptide)
< 200,–,Ac-Phe-Orn-Pro-hle-Bta-2Ni-NH2 (peptide)
< 200,–,Ac-Phe-Orn-Pro-hle-Pff-Pff-NH2 (peptide)
< 200,–,Ac-Phe-Orn-Pro-hle-Bta-Tyr-NH2 (peptide)
< 200,–,Ac-Phe-Orn-Pro-hle-Bta-Chg-NH2 (peptide)
< 200,–,H-Phe-[Orn-Hyp-hle-Pff-Phe] (peptide)
< 200,–,Ac-Phe-Orn-Pro-Cha-Bta-NH-NBn-CO-NH2 (peptide)
< 50,–,Ac-Phe-Orn-Pro-cha-Bta-Pmf-NH2 (peptide)
< 200,–,Ac-Thi-Orn-Pro-cha-Trp-Phe-NH2 (peptide)
< 50,> 1430,Ac-Phe-[Orn-Hyp-cha-Trp-Phe] (peptide)
< 200,–,Ac-Phe-Eep-Pro-cha-Bta-Phe-NH2 (peptide)
< 200,–,Ac-Phe-Orn-Pro-hle-Off-Phe-NH2 (peptide)
